Laboratory results from US20230167200A1 (BIOTHEUS, published 2023).

Legend:
[1] = biological target: T1, anti-PD-1/TIGIT/human serum albumin trispecific antibody Bi-70-71; test: BLI (Octet), antibody held on PD-1 sensor, human TIGIT 100 nM in solution
[2] = biological target: T2, anti-PD-1/TIGIT/human serum albumin trispecific antibody Bi-72-73; test: as above
[3] = biological target: T1, anti-PD-1/TIGIT/human serum albumin …; test: flow cytometry on CHO-hTIGIT cells
[4] = biological target: T2, anti-PD-1/TIGIT/human serum albumin …; test: flow cytometry on CHO-hTIGIT cells
[5] = biological target: T3, human PD-L1 expressed on CHO cells (CHO-hPD-L1 cells) (human, UniProt Q9NZQ7 19-290); test: flow cytometry on CHO-hPD-L1 cells
T3 construct: whole, on cells; also called CHO-KI-PD-L1/PD-L2

[6] = biological target: T4, human PD-L2 expressed on CHO cells (CHO-hPD-L2 cells) (human, UniProt Q9BQ51 20-273); test: flow cytometry on CHO-hPD-L2 cells
T4 construct: whole, on cells; also called CHO-KI-PD-L1/PD-L2
T4 sequence (looked up): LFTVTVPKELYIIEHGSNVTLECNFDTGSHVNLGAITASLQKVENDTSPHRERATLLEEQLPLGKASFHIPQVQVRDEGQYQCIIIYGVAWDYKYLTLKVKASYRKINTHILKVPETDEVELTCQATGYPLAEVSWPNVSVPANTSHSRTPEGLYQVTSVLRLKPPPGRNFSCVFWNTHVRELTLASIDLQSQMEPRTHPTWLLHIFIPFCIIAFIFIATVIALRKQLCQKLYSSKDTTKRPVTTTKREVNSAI

T3 sequence (Q9NZQ7 19-290): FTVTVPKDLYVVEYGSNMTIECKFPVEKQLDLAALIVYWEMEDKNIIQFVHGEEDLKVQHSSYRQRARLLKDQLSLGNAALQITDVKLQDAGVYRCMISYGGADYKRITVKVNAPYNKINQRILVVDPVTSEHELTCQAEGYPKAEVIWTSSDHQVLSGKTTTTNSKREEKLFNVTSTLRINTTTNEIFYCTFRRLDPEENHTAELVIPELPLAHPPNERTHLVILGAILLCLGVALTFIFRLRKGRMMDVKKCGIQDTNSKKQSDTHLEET

B1: human TIGIT (ACROBiosystems) (receptor, UniProt Q495A1 22-141, looked up)
chain: MMTGTIETTGNISAEKGGSIILQCHLSSTTAQVTQVNWEQQDQLLAICNADLGWHISPSFKDRVAPGPGLGLTLQSLTVNDTGEYFCIYHTYPDGTYTGRIFLEVLESSVAEHGARFQIP
notes: Bought protein
B1: binds [1]; binds [2].

B2: human TIGIT expressed on CHO cells (CHO-hTIGIT cells) (receptor, UniProt Q495A1 22-244, looked up)
chain: MMTGTIETTGNISAEKGGSIILQCHLSSTTAQVTQVNWEQQDQLLAICNADLGWHISPSFKDRVAPGPGLGLTLQSLTVNDTGEYFCIYHTYPDGTYTGRIFLEVLESSVAEHGARFQIPLLGAMAATLVVICTAVIVVVALTRKKKALRIHSVEGDLRRKSAGQEEWSPSAPSPPGSCVQAEAAPAGLCGEQRGEDCAELHDYFNVLSYRSLGNCSFFTETG
notes: whole, on cells; also called CHO-hTIGIIT
B2: binds [3]; binds [4].

B3: anti-PD-L1/PD-L2 bispecific antibody Fc fusion protein Bi-203-204 (bispecific antibody, human IgG1, kappa, L234A L235A, V domains shown)
V domain 1: QVQLVESGGGLVKPGGSLRLSCAASGHTFIIYAIGWFRQAPGKGLEFVATINWSGSMTNYADSVKGRFTISRDNAKNTVYLQMNSLKPDDTAVYYCAAYVGATISTAHSRYDYWGQGTLVTVSS
V domain 2: EVQLVESGGGLVQPGGSLRLSCAASGRTFSSMTIGWFRQAPGKGLEFVSGIGWTSGLTVYADSVKGRFTISRDNAKNSMYLQMNSLRAEDTAVYYCAADSMNRGQFDYWGQGTLVTVSS
B3: binds [5]; binds [6].
